Reference: patent publication US20110171126A1

Experiments:
[1] = target: HLA-DR as expressed by cancer cell lines (human); experiment: flow cytometry, permeabilized (cytoplasmic), LS174T cells
[2] = target: HLA-DR as expressed by cancer cell lines (human); experiment: flow cytometry, permeabilized (cytoplasmic), Panc-1 cells + IFNγ
[3] = target: HLA-DR as expressed by cancer cell lines (human); experiment: flow cytometry, surface, FSCCL cells
[4] = target: HLA-DR as expressed by cancer cell lines (human); experiment: flow cytometry, surface, Capan-1 cells
[5] = target: HLA-DR as expressed by cancer cell lines (human); experiment: flow cytometry, permeabilized (cytoplasmic), KMS11 cells
[6] = target: HLA-DR as expressed by cancer cell lines (human); experiment: flow cytometry, surface, TU118 cells
[7] = target: HLA-DR as expressed by cancer cell lines (human); experiment: flow cytometry, surface, Panc-1 cells
[8] = target: HLA-DR as expressed by cancer cell lines (human); experiment: flow cytometry, permeabilized (cytoplasmic), U87 cells + IFNγ
[9] = target: HLA-DR as expressed by cancer cell lines (human); experiment: flow cytometry, permeabilized (cytoplasmic), Capan-1 cells
[10] = target: HLA-DR as expressed by cancer cell lines (human); experiment: flow cytometry, permeabilized (cytoplasmic), BxPC-3 cells
[11] = target: HLA-DR as expressed by cancer cell lines (human); experiment: flow cytometry, surface, U118 cells
[12] = target: HLA-DR as expressed by cancer cell lines (human); experiment: flow cytometry, permeabilized (cytoplasmic), Moser cells + IFNγ
[13] = target: HLA-DR as expressed by cancer cell lines (human); experiment: flow cytometry, surface, RL cells
[14] = target: HLA-DR as expressed by cancer cell lines (human); experiment: flow cytometry, permeabilized (cytoplasmic), LS174T cells + IFNγ
[15] = target: HLA-DR as expressed by cancer cell lines (human); experiment: flow cytometry, surface, U87 cells + IFNγ
[16] = target: HLA-DR as expressed by cancer cell lines (human); experiment: flow cytometry, surface, BxPC-3 cells + IFNγ
[17] = target: HLA-DR as expressed by cancer cell lines (human); experiment: flow cytometry, surface, FSCCL cells + IFNγ
[18] = target: HLA-DR as expressed by cancer cell lines (human); experiment: flow cytometry, permeabilized (cytoplasmic), Aspc-1 cells + IFNγ
[19] = target: HLA-DR as expressed by cancer cell lines (human); experiment: flow cytometry, surface, U118 cells + IFNγ
[20] = target: HLA-DR as expressed by cancer cell lines (human); experiment: flow cytometry, surface, U87 cells
[21] = target: HLA-DR as expressed by cancer cell lines (human); experiment: flow cytometry, surface, CAG cells + IFNγ
[22] = target: HLA-DR as expressed by cancer cell lines (human); experiment: flow cytometry, surface, Moser cells + IFNγ
[23] = target: HLA-DR as expressed by cancer cell lines (human); experiment: flow cytometry, surface, TU118 cells + IFNγ
[24] = target: HLA-DR as expressed by cancer cell lines (human); experiment: flow cytometry, permeabilized (cytoplasmic), FSCCL cells
[25] = target: HLA-DR as expressed by cancer cell lines (human); experiment: flow cytometry, permeabilized (cytoplasmic), Panc-1 cells
[26] = target: HLA-DR as expressed by cancer cell lines (human); experiment: flow cytometry, surface, Moser cells
[27] = target: HLA-DR as expressed by cancer cell lines (human); experiment: flow cytometry, permeabilized (cytoplasmic), U118 cells
[28] = target: HLA-DR as expressed by cancer cell lines (human); experiment: flow cytometry, surface, KMS11 cells + IFNγ
[29] = target: HLA-DR as expressed by cancer cell lines (human); experiment: flow cytometry, surface, CAG cells
[30] = target: HLA-DR as expressed by cancer cell lines (human); experiment: flow cytometry, permeabilized (cytoplasmic), Lovo cells
[31] = target: HLA-DR as expressed by cancer cell lines (human); experiment: flow cytometry, permeabilized (cytoplasmic), RL cells
[32] = target: HLA-DR as expressed by cancer cell lines (human); experiment: flow cytometry, surface, RL cells + IFNγ
[33] = target: HLA-DR as expressed by cancer cell lines (human); experiment: flow cytometry, surface, Lovo cells
[34] = target: HLA-DR as expressed by cancer cell lines (human); experiment: flow cytometry, permeabilized (cytoplasmic), Moser cells
[35] = target: HLA-DR as expressed by cancer cell lines (human); experiment: flow cytometry, permeabilized (cytoplasmic), KMS11 cells + IFNγ
[36] = target: HLA-DR as expressed by cancer cell lines (human); experiment: flow cytometry, permeabilized (cytoplasmic), Capan cells + IFNγ
[37] = target: HLA-DR as expressed by cancer cell lines (human); experiment: flow cytometry, permeabilized (cytoplasmic), TU118 cells + IFNγ
[38] = target: HLA-DR as expressed by cancer cell lines (human); experiment: flow cytometry, surface, HT29 cells + IFNγ
[39] = target: HLA-DR as expressed by cancer cell lines (human); experiment: flow cytometry, surface, LS174T cells + IFNγ
[40] = target: HLA-DR as expressed by cancer cell lines (human); experiment: flow cytometry, permeabilized (cytoplasmic), HT29 cells
[41] = target: HLA-DR as expressed by cancer cell lines (human); experiment: flow cytometry, surface, Aspc-1 cells + IFNγ
[42] = target: HLA-DR as expressed by cancer cell lines (human); experiment: flow cytometry, permeabilized (cytoplasmic), U87 cells
[43] = target: HLA-DR as expressed by cancer cell lines (human); experiment: flow cytometry, permeabilized (cytoplasmic), RL cells + IFNγ
[44] = target: HLA-DR as expressed by cancer cell lines (human); experiment: flow cytometry, permeabilized (cytoplasmic), FSCCL cells + IFNγ
[45] = target: HLA-DR as expressed by cancer cell lines (human); experiment: flow cytometry, permeabilized (cytoplasmic), TU118 cells
[46] = target: HLA-DR as expressed by cancer cell lines (human); experiment: flow cytometry, permeabilized (cytoplasmic), U118 cells + IFNγ
[47] = target: HLA-DR as expressed by cancer cell lines (human); experiment: flow cytometry, permeabilized (cytoplasmic), Aspc-1 cells
[48] = target: HLA-DR as expressed by cancer cell lines (human); experiment: flow cytometry, surface, BxPC-3 cells
[49] = target: HLA-DR as expressed by cancer cell lines (human); experiment: flow cytometry, surface, LS174T cells
[50] = target: HLA-DR as expressed by cancer cell lines (human); experiment: flow cytometry, permeabilized (cytoplasmic), CAG cells + IFNγ
[51] = target: HLA-DR as expressed by cancer cell lines (human); experiment: cell-based or functional assay
[52] = target: HLA-DR as expressed by cancer cell lines (human); experiment: flow cytometry, surface, HT29 cells
[53] = target: HLA-DR as expressed by cancer cell lines (human); experiment: flow cytometry, surface, Capan cells + IFNγ
[54] = target: HLA-DR as expressed by cancer cell lines (human); experiment: flow cytometry, permeabilized (cytoplasmic), CAG cells
[55] = target: HLA-DR as expressed by cancer cell lines (human); experiment: flow cytometry, surface, Panc-1 cells + IFNγ
[56] = target: HLA-DR as expressed by cancer cell lines (human); experiment: flow cytometry, permeabilized (cytoplasmic), BxPC-3 cells + IFNγ
[57] = target: HLA-DR as expressed by cancer cell lines (human); experiment: flow cytometry, surface, Aspc-1 cells
[58] = target: HLA-DR as expressed by cancer cell lines (human); experiment: flow cytometry, permeabilized (cytoplasmic), HT29 cells + IFNγ
[59] = target: HLA-DR as expressed by cancer cell lines (human); experiment: flow cytometry, permeabilized (cytoplasmic), Lovo cells + IFNγ
[60] = target: HLA-DR as expressed by cancer cell lines (human); experiment: flow cytometry, surface, Lovo cells + IFNγ
[61] = target: HLA-DR as expressed by cancer cell lines (human); experiment: flow cytometry, surface, KMS11 cells

B1: hL243γ4P (humanized anti-HLA-DR antibody) (antibody, from a related filing, V domains shown)
VH: QVQLQQSGSELKKPGASVKVSCKASGFTFTNYGMNWVKQAPGQGLKWMGWINTYTREPTYADDFKGRFAFSLDTSVSTAYLQISSLKADDTAVYFCARDITAVVPTGFDYWGQGSLVTVSS
VL: DIQLTQSPSSLSASVGDRVTITCRASENIYSNLAWYRQKPGKAPKLLVFAASNLADGVPSRFSGSGSGTDYTFTISSLQPEDIATYYCQHFWTTPWAFGGGTKLQIKR
- fluorescence intensity (flow cytometry) [1]: 23.4
- fluorescence intensity (flow cytometry) [2]: 64.1
- fluorescence intensity (flow cytometry) [3]: 1090
- fluorescence intensity (flow cytometry) [4]: 5.5
- fluorescence intensity (flow cytometry) [5]: 879
- fluorescence intensity (flow cytometry) [6]: 5.08
- fluorescence intensity (flow cytometry) [7]: 4.3
- fluorescence intensity (flow cytometry) [8]: 429
- fluorescence intensity (flow cytometry) [9]: 11.6
- fluorescence intensity (flow cytometry) [10]: 14.2
- fluorescence intensity (flow cytometry) [11]: 6.1
- fluorescence intensity (flow cytometry) [12]: 40.5
- fluorescence intensity (flow cytometry) [13]: 750
- fluorescence intensity (flow cytometry) [14]: 42.3
- fluorescence intensity (flow cytometry) [15]: 172
- fluorescence intensity (flow cytometry) [16]: 43.8
- fluorescence intensity (flow cytometry) [17]: 1610
- fluorescence intensity (flow cytometry) [18]: 73.6
- fluorescence intensity (flow cytometry) [19]: 197
- fluorescence intensity (flow cytometry) [20]: 41.9
- fluorescence intensity (flow cytometry) [21]: 1810
- fluorescence intensity (flow cytometry) [22]: 8.5
- fluorescence intensity (flow cytometry) [23]: 93.5
- fluorescence intensity (flow cytometry) [24]: 1470
- fluorescence intensity (flow cytometry) [25]: 22.7
- fluorescence intensity (flow cytometry) [26]: 4
- fluorescence intensity (flow cytometry) [27]: 24.6
- fluorescence intensity (flow cytometry) [28]: 665
- fluorescence intensity (flow cytometry) [29]: 1930
- fluorescence intensity (flow cytometry) [30]: 32.5
- fluorescence intensity (flow cytometry) [31]: 1060
- fluorescence intensity (flow cytometry) [32]: 862
- fluorescence intensity (flow cytometry) [33]: 7.3
- fluorescence intensity (flow cytometry) [34]: 18.2
- fluorescence intensity (flow cytometry) [35]: 927
- fluorescence intensity (flow cytometry) [36]: 253
- fluorescence intensity (flow cytometry) [37]: 215
- fluorescence intensity (flow cytometry) [38]: 298
- fluorescence intensity (flow cytometry) [39]: 4.7
- fluorescence intensity (flow cytometry) [40]: 9.1
- fluorescence intensity (flow cytometry) [41]: 15.2
- fluorescence intensity (flow cytometry) [42]: 102
- fluorescence intensity (flow cytometry) [43]: 1180
- fluorescence intensity (flow cytometry) [44]: 2520
- fluorescence intensity (flow cytometry) [45]: 23.6
- fluorescence intensity (flow cytometry) [46]: 352
- fluorescence intensity (flow cytometry) [47]: 11
- fluorescence intensity (flow cytometry) [48]: 2.3
- fluorescence intensity (flow cytometry) [49]: 5.3
- fluorescence intensity (flow cytometry) [50]: 2420
- increased killing in vitro after IFN-γ exposure, WSU-FSCCL NHL cells [51]: 58%
- fluorescence intensity (flow cytometry) [52]: 3.3
- fluorescence intensity (flow cytometry) [53]: 66.2
- fluorescence intensity (flow cytometry) [54]: 2320
- fluorescence intensity (flow cytometry) [55]: 4.7
- fluorescence intensity (flow cytometry) [56]: 130
- fluorescence intensity (flow cytometry) [57]: 3.2
- fluorescence intensity (flow cytometry) [58]: 638
- fluorescence intensity (flow cytometry) [59]: 989
- fluorescence intensity (flow cytometry) [60]: 276
- fluorescence intensity (flow cytometry) [61]: 677
